Legend:
[1] = biological target: Hfq WT (Escherichia coli K-12 MG1655) (UniProt P0A6X3); test: EMSA; conditions: EMSA: 20 mM Tris-HCl pH 7.6, 0.5 M NaCl, 1 mM EDTA, 1% glycerol, 20 min at 25 C, native PAGE in 0.5x TBE at 4 C
[2] = biological target: Hfq WT (Escherichia coli K-12 MG1655) (UniProt P0A6X3); test: competition; conditions: EMSA: 20 mM Tris-HCl pH 7.6, 0.5 M NaCl, 1 mM EDTA, 1% glycerol, 20 min at 25 C; native PAGE in 0.5x TBE at 4 C

Substance	K half ([1]; Hfq monomer, K1 (first shift))	binding [2]	K half [1]	binding signal ([1]; 347.5 nM Hfq monomer)
DsrA	122 nM	–	–	–
GGGAACACAUCAGAUUUCCUGGUGUAACGAAUUUUUUAAGUGCUUCUUGCUUAAGCAAGUUUCAUCCCGACCCCCUCAGGGUCGGGAUUU [DsrA]	–	binds	122 nM	–
RNA I FL	225 nM	–	–	72.1 % bound

Reference: publication PMC11012335
